We go through 1 protein from article PMC9267027, “Discovery of a New Microbial Origin Cold-Active Neopullulanase Capable for Effective Conversion of Pullulan to Panose” (International Journal of Molecular Sciences, 2022).

This data set concerns the molecule itself. Kind of data set: AUC; sedimentation velocity, 50 mM Na2HPO4-NaH2PO4 buffer pH 7.0, 20 °C, 38,000 rpm, absorbance at 280 nm, c(s) model in SEDFIT; oligomeric state.

Values joined by “and” are separate entries in the source; they are usually repeats but may differ in a detail not shown here. Identical values can stand only once.

B1: Maltogenic amylase (MAase) ThMA from the Thermus strain (enzyme)
chain: MRKEAIHHRSTDNFAYAYDSETLHLRLQTKKNDVDHVELLFGDPYEWHDGAWQFQTMPMRKTGSDGLFDYWLAEVKPPYRRLRYGFVLRAGGEKLVYTEKGFYHEAPSDDTAYYFCFPFLHRVDLFQAPDWVKDTVWYQIFPERFANGNPAISPKGARPWGSEDPTPTSFFGGDLQGIIDHLDYLADLGITGIYLTPIFRAPSNHKYDTADYFEIDPHFGDKETLKTLVKRCHEKGIRVMLDAVFNHCGYEFAPFQDVLKNGAASRYKDWFHIREFPLQTEPRPNYDTFAFVPHMPKLNTAHPEVKRYLLDVATYWIREFDIDGWRLDVANEIDHQFWREFRQAVKALKPDVYILGEIWHDAMPWLRGDQFDAVMNYPLADAALRFFAKEDMSASEFADRLMHVLHSYPKQVNEAAFNLLGSHDTPRLLTVCGGDVRKVKLLFLFQLTFTGSPCIYYGDEIGMTGGNDPECRKCMVWDPEKQNKELYEHVKQLIALRKQYRALRRGDVAFLTADDEVNHLVYAKTDGNETVMIIINRSNEAAEIPMPIDARGKWLVNLLTGERFAAEAETLCVSLPPYGFVLYAVESW
notes: ThMA, maltogenic amylase of a Thermus strain (AAC15072.1); used as the control in analytical ultracentrifugation; the construct is not described
With B1, the “stoichiometry N” value is 2 and 4.
